Measured values as given in patent publication US20180134756A1 (NATIONAL INSTITUTE OF ADVANCED INDUSTRIAL SCIENCE AND …, published 2018).

Molecular target: T1, Aleuria Aurantia Lectin (AAL) (Aleuria aurantia, UniProt P18891 2-313)
T1 construct: Used as the probe in lectin blotting
T1 sequence (looked up): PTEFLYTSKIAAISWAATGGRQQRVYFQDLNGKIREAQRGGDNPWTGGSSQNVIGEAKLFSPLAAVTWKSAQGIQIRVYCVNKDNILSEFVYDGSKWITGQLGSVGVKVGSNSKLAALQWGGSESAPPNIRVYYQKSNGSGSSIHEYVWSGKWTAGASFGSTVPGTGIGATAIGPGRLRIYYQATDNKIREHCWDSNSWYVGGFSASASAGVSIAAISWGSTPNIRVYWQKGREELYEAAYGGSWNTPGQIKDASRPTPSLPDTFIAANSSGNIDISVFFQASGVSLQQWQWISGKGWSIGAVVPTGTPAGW
Assay: lectin blotting
Protocol: It was reported that the natural WFA (nWFA) has a sugar chain including fucose, and thus, the lectin blotting was performed using Aleuria Aurantia Lectin (AAL) recognizing fucose. As a result, it was confirmed that the nWFA was a glycoprotein including a sugar chain that reacted to AAL (FIGS. 5A and 5B).

B1: natural Wisteria floribunda lectin (nWFA), purified, purchased from Vector Lab (other)
chain: KETTSFVFTRFSPDPQNLLLQGDTVVTSSGHLQLTQVKDGEPVYSSLGRALYYAPIHIWDSNTDTVANFVTSFSFVIDAPNKAKAADGLAFFLAPVDTEPQKPGGLLGLFHDDRHNKSNHIVAVEFDTFKNSWDPEGTHIGINVNSIVSRKTTSWDLENGEVANVVISYQASTKTLTASLVYPSSSTSYILNDVVDLKQILPEYVRVGFTAASGLSKDHVETHDVLAWTFDSDLPDPSSDDCN
modifications: one N-glycan (fucose-containing) expected at Asn146; disulfide bond between the two Cys272
notes: Lectin purified from seeds; Disulfide-linked dimer of about 60 KDa; also called natural WFA; nature-derived WFA
B1: binds.
